Molecular target: T1, FLAG-ubiquitin, recombinant (UniProt P0CG47 1-76)
T1 construct: ubiquitin, the cut product of a ubiquitin precursor; source: bought: Boston Biochem
Assay: SPR; Biacore 3000, 25°C; FLAG-ubiquitin immobilised on CM-5 chip by amine cross-linking; increasing amounts of GST-ING1 injected; blank reference subtracted; three experiments; steady-state affinity and kinetic data
Conditions: both partners purified

B1: GST-ING1b, full length, recombinant (natural protein, human, UniProt Q9UK53-2 1-279, looked up)
chain: MLSPANGEQLHLVNYVEDYLDSIESLPFDLQRNVSLMREIDAKYQEILKELDECYERFSRETDGAQKRRMLHCVQRALIRSQELGDEKIQIVSQMVELVENRTRQVDSHVELFEAQQELGDTAGNSGKAGADRPKGEAAAQADKPNSKRSRRQRNNENRENASSNHDHDDGASGTPKEKKAKTSKKKKRSKAKAEREASPADLPIDPNEPTYCLCNQVSYGEMIGCDNDECPIEWFHFSCVGLNHKPKGKWYCPKCRGENEKTMDKALEKSKKERAYNR
notes: ING1 isoform p33ING1b, full length
Kd: ~100 nM

From publication PMC3120833, “The p53 Tumor Suppressor Is Stabilized by Inhibitor of Growth 1 (ING1) by Blocking Polyubiquitination” (PLoS ONE, 2011)
